# In patent US20190017997:
# T1: CRTC1 S151A
# T1 chain: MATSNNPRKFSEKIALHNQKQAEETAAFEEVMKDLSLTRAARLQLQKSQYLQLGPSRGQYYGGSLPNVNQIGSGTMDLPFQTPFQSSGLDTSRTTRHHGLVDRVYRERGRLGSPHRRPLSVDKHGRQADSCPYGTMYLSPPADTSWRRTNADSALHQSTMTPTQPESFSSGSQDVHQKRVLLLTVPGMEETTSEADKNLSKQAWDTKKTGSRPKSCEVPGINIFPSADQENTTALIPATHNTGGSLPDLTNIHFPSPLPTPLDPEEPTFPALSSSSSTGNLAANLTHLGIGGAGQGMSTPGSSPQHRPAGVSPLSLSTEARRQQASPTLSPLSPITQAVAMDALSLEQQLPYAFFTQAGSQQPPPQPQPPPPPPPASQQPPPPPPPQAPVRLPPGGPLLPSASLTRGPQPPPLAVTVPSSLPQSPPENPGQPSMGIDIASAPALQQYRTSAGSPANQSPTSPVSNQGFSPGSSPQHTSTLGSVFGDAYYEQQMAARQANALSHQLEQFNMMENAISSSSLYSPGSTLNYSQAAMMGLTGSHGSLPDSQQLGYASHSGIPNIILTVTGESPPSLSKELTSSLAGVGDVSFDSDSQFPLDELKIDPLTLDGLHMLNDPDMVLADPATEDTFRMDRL
# T2: CRTC1 S151A/S215A
# T2 chain: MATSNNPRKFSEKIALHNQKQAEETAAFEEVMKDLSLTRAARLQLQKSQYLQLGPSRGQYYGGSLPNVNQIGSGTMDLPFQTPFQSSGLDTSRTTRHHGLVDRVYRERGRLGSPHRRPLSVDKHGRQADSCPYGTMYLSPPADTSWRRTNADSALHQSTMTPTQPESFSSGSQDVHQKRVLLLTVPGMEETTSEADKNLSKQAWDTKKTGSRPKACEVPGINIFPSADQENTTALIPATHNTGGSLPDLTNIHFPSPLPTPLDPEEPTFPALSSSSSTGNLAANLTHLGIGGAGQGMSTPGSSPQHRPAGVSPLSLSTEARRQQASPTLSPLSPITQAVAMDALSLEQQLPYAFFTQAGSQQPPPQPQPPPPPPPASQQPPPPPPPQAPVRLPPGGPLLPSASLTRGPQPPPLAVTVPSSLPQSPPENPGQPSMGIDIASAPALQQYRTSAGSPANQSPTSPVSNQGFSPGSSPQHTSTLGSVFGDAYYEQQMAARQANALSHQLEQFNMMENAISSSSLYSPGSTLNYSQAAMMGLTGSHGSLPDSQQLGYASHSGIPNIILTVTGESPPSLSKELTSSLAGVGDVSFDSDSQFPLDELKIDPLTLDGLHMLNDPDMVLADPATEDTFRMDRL
# T3: CRTC1 S151A/T449A
# T3 chain: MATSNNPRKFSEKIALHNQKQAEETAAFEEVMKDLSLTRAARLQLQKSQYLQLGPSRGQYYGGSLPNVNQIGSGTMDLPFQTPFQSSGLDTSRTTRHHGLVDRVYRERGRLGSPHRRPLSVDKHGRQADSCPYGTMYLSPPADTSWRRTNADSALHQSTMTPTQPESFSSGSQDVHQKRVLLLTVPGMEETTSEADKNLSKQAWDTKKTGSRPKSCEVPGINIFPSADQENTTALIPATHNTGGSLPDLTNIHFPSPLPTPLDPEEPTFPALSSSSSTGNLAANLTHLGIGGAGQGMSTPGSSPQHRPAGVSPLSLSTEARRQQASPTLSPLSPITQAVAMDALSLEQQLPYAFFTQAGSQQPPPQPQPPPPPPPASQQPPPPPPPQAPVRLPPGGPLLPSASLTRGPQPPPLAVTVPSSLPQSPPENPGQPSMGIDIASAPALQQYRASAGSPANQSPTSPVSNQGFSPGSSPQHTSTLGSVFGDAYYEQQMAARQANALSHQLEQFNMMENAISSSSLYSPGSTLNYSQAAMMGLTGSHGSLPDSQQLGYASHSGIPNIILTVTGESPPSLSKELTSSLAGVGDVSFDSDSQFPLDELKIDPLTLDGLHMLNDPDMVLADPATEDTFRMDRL
# T4: CRTC1 (CREB-regulated transcription coactivator 1)
# T4 chain: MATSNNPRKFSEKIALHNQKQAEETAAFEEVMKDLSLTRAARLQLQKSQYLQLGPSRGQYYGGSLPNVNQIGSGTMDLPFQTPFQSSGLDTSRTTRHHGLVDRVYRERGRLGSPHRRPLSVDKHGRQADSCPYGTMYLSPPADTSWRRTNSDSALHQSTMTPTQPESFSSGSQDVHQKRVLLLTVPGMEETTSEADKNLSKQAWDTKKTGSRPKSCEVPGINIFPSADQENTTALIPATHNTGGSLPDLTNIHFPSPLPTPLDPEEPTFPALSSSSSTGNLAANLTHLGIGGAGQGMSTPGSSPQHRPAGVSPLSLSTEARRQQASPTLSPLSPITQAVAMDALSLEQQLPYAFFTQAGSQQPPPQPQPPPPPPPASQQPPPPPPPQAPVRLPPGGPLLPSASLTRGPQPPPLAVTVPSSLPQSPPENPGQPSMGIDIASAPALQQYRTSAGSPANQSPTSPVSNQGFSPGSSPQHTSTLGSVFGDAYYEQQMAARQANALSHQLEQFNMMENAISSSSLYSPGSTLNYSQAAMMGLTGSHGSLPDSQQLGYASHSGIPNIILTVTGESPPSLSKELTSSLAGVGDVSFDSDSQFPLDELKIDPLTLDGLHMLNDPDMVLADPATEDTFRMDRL
# B1: PAK4 (p21-activated kinase 4) (protein)
# chain: MFGKRKKRVEISAPSNFEHRVHTGFDQHEQKFTGLPRQWQSLIEESARRPKPLVDPACITSIQPGAPKTIVRGSKGAKDGALTLLLDEFENMSVTRSNSLRRDSPPPPARARQENGMPEEPATTARGGPGKAGSRGRFAGHSEAGGGSGDRRRAGPEKRPKSSREGSGGPQESSRDKRPLSGPDVGTPQPAGLASGAKLAAGRPFNTYPRADTDHPSRGAQGEPHDVAPNGPSAGGLAIPQSSSSSSRPPTRARGAPSPGVLGPHASEPQLAPPACTPAAPAVPGPPGPRSPQREPQRVSHEQFRAALQLVVDPGDPRSYLDNFIKIGEGSTGIVCIATVRSSGKLVAVKKMDLRKQQRRELLFNEVVIMRDYQHENVVEMYNSYLVGDELWVVMEFLEGGALTDIVTHTRMNEEQIAAVCLAVLQALSVLHAQGVIHRDIKSDSILLTHDGRVKLSDFGFCAQVSKEVPRRKSLVGTPYWMAPELISRLPYGPEVDIWSLGIMVIEMVDGEPPYFNEPPLKAMKMIRDNLPPRLKNLHKVSPSLKGFLDRLLVRDPAQRATAAELLKHPFLAKAGPPASIVPLMRQNRTR
# B2: caPAK4 (PAK4 S445N/S474E, constitutively active PAK4) (protein)
# chain: MFGKRKKRVEISAPSNFEHRVHTGFDQHEQKFTGLPRQWQSLIEESARRPKPLVDPACITSIQPGAPKTIVRGSKGAKDGALTLLLDEFENMSVTRSNSLRRDSPPPPARARQENGMPEEPATTARGGPGKAGSRGRFAGHSEAGGGSGDRRRAGPEKRPKSSREGSGGPQESSRDKRPLSGPDVGTPQPAGLASGAKLAAGRPFNTYPRADTDHPSRGAQGEPHDVAPNGPSAGGLAIPQSSSSSSRPPTRARGAPSPGVLGPHASEPQLAPPACTPAAPAVPGPPGPRSPQREPQRVSHEQFRAALQLVVDPGDPRSYLDNFIKIGEGSTGIVCIATVRSSGKLVAVKKMDLRKQQRRELLFNEVVIMRDYQHENVVEMYNSYLVGDELWVVMEFLEGGALTDIVTHTRMNEEQIAAVCLAVLQALSVLHAQGVIHRDIKSDNILLTHDGRVKLSDFGFCAQVSKEVPRRKELVGTPYWMAPELISRLPYGPEVDIWSLGIMVIEMVDGEPPYFNEPPLKAMKMIRDNLPPRLKNLHKVSPSLKGFLDRLLVRDPAQRATAAELLKHPFLAKAGPPASIVPLMRQNRTR
# Experiments:
# CRTC1 S151A = molecular target: T1, CRTC1 S151A
# CRTC1 S151A/S215A = molecular target: T2, CRTC1 S151A/S215A
# CRTC1 S151A/T449A = molecular target: T3, CRTC1 S151A/T449A
# [1] = molecular target: CREB (cyclic adenosine 3',5'-monophosphate response element-binding protein), P16220
# Sequence of CREB (cyclic adenosine 3',5'-monophosphate response element-binding protein), P16220 (P16220 whole entry): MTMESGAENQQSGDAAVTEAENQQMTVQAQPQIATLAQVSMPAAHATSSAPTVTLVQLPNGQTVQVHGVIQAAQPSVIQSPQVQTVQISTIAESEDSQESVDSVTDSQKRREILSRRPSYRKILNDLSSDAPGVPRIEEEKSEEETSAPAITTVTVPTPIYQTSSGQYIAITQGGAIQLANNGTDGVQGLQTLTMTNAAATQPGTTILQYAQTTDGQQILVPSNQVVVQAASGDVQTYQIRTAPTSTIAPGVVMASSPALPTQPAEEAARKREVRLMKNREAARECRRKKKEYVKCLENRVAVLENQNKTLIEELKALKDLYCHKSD
# [2] = molecular target: T4, CRTC1 (CREB-regulated transcription …)
Protein,phosphorylation by PAK4 (kinase analysis of CRTC1 variants) (CRTC1 S151A),phosphorylation by PAK4 (kinase analysis of CRTC1 variants) (CRTC1 S151A/S215A),phosphorylation by PAK4 (kinase analysis of CRTC1 variants) (CRTC1 S151A/T449A),phosphorylation of CREB [1],phosphorylation of CRTC1 (in vitro kinase assay) [2],substrate of the kinase (kinase analysis) [2]
B1,CRTC1^S151A and CRTC1^S151A/T449A were slightly phosphorylated,"CRTC1^S151A/S215A, was not phosphorylated",CRTC1^S151A and CRTC1^S151A/T449A were slightly phosphorylated,PAK4 does not induce phosphorylation of CREB,PAK4 phosphorylates CRTC1,
B2,,,,,,CRTC1 is a substrate of caPAK4
